Where two headings read alike, the source gives them in different places.
Legend:
[1] = target: T1, p75 neurotrophin receptor/Fc (Homo sapiens, UniProt P08138); test: Surface plasmon resonance (BIAcore) binding to immobilized p75-IgG-Fc chimeric protein; conditions: 91.5 fmol/mm^2 immobilized p75-IgG-Fc; for Kd: BIAcore
T1 construct: purchased R&D systems (Oxon, UK)
Experimental: (§1) FIG. 2: Characterization of NGF binding to p75, TrkA, and Sortilin as measured by surface plasmon resonance analysis (BIAcore). Binding of 50-500 nM NGF was measured to 91.5 fmol/mm^2 immobilized p75-IgG-Fc chimeric protein (upper panel), to 66 fmol/mm^2 immobilized TrkA-IgG-Fc (middle panel), and to 51 fmol/mm^2 purified Sortilin extracellular domain (lower panel).
(§2) Mature murine NGF was from Austral Biologicals (San Ramon, Calif.), recombinant human p75 neurotrophin receptor/Fc and human TrkA/Fc chimeras were from R&D systems (Oxon, UK). Human Sortilin was produced in stably transfected CHO-cells and purified as described elsewhere (Munck Petersen et al, EMBO J. (1999) 18:595-604).
as §1, with “3:” for “2:”, “proNGF” for “NGF”, “25-500” for “50-500”
as §1, with “4:” for “2:”, “of” for “of NGF”, “binding of the proNGF propeptide” for “binding”, “25-500” for “50-500”, “propeptide” for “NGF”
(§3) All the data provided in FIG. 2-7 are obtained by surface plasmon resonance measurements (BIAcore analysis)

TrkA/Fc = test: Surface plasmon resonance (BIAcore) binding to immobilized TrkA-IgG-Fc; parameters: species or system human; conditions: 66 fmol/mm^2 immobilized TrkA-IgG-Fc; for Kd: BIAcore
Experimental: as §1, §2
as §1, with “3:” for “2:”, “proNGF” for “NGF”, “25-500” for “50-500”
as §1, with “4:” for “2:”, “of” for “of NGF”, “binding of the proNGF propeptide” for “binding”, “25-500” for “50-500”, “propeptide” for “NGF”
as §3

[2] = target: T2, Sortilin extracellular domain (Homo sapiens, UniProt Q99523); test: Surface plasmon resonance (BIAcore) binding to immobilized purified Sortilin extracellular domain
T2 construct: purified Sortilin extracellular domain (lower panel); made in house; host or cells: CHO cells (stably transfected)
T2 sequence (Q99523 78-755 limits assumed): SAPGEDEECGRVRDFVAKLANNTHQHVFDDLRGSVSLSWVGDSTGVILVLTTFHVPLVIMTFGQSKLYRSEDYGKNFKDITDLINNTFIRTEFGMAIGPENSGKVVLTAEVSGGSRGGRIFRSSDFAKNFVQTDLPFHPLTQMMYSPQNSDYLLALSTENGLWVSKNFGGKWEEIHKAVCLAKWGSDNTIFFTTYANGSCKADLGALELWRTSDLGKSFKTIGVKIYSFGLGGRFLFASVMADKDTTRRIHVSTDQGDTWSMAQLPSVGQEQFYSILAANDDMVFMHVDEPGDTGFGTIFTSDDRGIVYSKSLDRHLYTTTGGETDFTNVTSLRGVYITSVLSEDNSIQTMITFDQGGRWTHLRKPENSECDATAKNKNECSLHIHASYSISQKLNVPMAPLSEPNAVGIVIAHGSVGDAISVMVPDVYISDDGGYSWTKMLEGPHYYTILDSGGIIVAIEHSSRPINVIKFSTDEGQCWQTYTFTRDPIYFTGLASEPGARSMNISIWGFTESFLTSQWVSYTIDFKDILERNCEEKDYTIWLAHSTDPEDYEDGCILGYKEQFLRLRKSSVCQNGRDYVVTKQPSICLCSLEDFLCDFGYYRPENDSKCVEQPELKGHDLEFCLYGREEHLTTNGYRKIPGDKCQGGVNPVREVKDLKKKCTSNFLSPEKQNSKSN
Experimental: as §1, §2
as §1, with “3:” for “2:”, “proNGF” for “NGF”, “25-500” for “50-500”
as §1, with “4:” for “2:”, “of” for “of NGF”, “binding of the proNGF propeptide” for “binding”, “25-500” for “50-500”, “propeptide” for “NGF”
FIG. 7: Characterization of proBDNF and BDNF binding to purified Sortilin as measured by surface plasmon resonance (BIAcore). Rat proBDNF was produced in 293 cells as described in Lee, R., Kermani, P., Teng, K. K. & Hempstead, B. L. Regulation of cell survival by secreted proneurotrophins. Science 294, 1945-1948 (2001). and purified from the conditioned medium. Mature recombinant human BDNF was from Promega (#G1491) and the pro-domain of human BDNF fused to GST (glutathione S-transferase) was produced in E. coli and purified by glutathione-sepharose affinity chromatography. Binding of 5-500 nM proBDNF (upper panel), pro-domain of proBDNF (a GST-fusion protein, middle panel) or BDNF (lower panel) was measured to 94 fmol/mm2 immobilized purified Sortilin extracellular domain. The experiment was carried out essentially as described for FIGS. 2-4.
as §3

[3] = target: T3, proNGF binding to Sortilin (Homo sapiens, UniProt Q99523); test: Inhibition of proNGF binding to immobilized Sortilin (BIAcore); conditions: prebound then coinjected, 51 fmol/mm^2 Sortilin
T3 construct: to 51 fmol/mm^2 purified Sortilin extracellular domain (lower panel); made in house; host or cells: Sortilin: stably transfected CHO cells; proNGF: E. coli
T3 sequence (Q99523 78-755 limits assumed): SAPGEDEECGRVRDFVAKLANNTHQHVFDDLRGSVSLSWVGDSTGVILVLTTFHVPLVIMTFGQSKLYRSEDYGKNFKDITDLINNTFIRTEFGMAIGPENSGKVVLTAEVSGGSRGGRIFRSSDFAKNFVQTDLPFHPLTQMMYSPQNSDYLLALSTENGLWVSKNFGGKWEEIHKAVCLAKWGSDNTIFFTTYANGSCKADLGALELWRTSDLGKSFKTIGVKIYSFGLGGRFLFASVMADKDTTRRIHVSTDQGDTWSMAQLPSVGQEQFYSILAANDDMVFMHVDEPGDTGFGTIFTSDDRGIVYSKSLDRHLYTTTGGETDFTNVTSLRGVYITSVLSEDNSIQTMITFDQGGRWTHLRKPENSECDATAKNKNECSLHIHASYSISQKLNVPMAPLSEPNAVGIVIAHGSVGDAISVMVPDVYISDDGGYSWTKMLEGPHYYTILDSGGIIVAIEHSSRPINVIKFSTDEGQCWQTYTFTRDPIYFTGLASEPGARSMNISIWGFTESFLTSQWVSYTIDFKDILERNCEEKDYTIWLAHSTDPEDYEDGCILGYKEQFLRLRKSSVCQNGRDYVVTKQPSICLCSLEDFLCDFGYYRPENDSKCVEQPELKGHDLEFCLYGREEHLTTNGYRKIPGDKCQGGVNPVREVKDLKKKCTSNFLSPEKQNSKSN
Experimental: FIG. 6: Inhibition of proNGF binding to immobilized Sortilin by RAP (receptor-associated protein), the propeptide of proNGF, and the Sortilin propeptide. The inhibitors were prebound to Sortilin followed by coinjection with 200 nM proNGF. […] Maximal proNGF binding is measured without preincubation with the respective inhibitors.

[4] = 51 fmol/mm^2 purified Sortilin extracellular domain, BIAcore, read-out: Kd for binding to Sortilin
[5] = 5-500 nM ligand, 94 fmol/mm2 immobilized purified Sortilin extracellular domain, read-out: Kd for ligand binding to Sortilin

T1 sequence (P08138 with tags, fused parts or gaps limits assumed): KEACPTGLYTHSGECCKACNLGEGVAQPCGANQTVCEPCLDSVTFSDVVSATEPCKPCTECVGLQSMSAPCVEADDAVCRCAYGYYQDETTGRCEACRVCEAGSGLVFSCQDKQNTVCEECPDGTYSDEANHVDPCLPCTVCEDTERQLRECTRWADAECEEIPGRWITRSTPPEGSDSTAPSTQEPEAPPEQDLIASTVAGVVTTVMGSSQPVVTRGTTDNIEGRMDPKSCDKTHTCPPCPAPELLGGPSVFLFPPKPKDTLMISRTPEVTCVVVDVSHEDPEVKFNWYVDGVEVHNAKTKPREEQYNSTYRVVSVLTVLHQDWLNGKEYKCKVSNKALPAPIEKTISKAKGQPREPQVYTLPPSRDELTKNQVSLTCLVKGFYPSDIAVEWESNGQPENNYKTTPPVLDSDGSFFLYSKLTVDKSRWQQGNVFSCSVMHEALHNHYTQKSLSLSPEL

proNGF: Human recombinant proNGF produced and purified in E. coli
Kd [1]: ~12 nM | Kd (TrkA/Fc): ~15 nM | Kd [2, 4]: ~5 nM

mature BDNF: Mature recombinant human BDNF from Promega (#G1491)
Kd [2, 5]: ~40 nM | Kd ([2]; other preparations of mature BDNF, read-out: Kd for ligand binding to Sortilin): 10 nM

Sortilin propeptide: Propeptide of Sortilin; SEQ ID NO: 1 amino acid residue 34-77, binds the processed receptor (QDRLDAPPPPAAPLPRWSGPIGVSWGLRAAAAGGAFPRGGRWRR; listed as Homo sapiens)
inhibition of binding of 200 nM proNGF to immobilized Sortilin ([3]; inhibitor 5 μM): ~65%

B1: proNGF propeptide: Human NGF-propeptide expressed in E. Coli; SEQ ID NO: 6 amino acid residue 19-121 (protein, listed as Homo sapiens)
chain: EPHSESNVPAGHTIPQVHWTKLQHSLDTALRRARSAPAAAIAARVAGQTRNITVDPRLFKKRRLRSPRVLFSTQPPREAADTQDLDFEVGGAAPFNRTHRSKR
binding to p75 ([1]; 25-500 nM propeptide): no detectable binding | binding to TrkA (TrkA/Fc; 25-500 nM propeptide): no detectable binding | Kd [2, 4]: ~87 nM | inhibition of binding of 200 nM proNGF to immobilized Sortilin ([3]; inhibitor 5 μM): ~85%

B2: RAP: Receptor-associated protein, cellular protein of about 300 amino acids, SEQ ID NO: 12 (protein, listed as Homo sapiens)
chain: MAPRRVRSFLRGLPALLLLLLFLGPWPAASHGGKYSREKNQPKPSPKRESGEEFRMEKLNQLWEKAQRLHLPPVRLAELHADLKIQERDELAWKKLKLDGLDEDGEKEARLIRNLNVILAKYGLDGKKDARQVTSNSLSGTQEDGLDDPRLEKLWHKAKTSGKFSGEELDKLWREFLHHKEKVHEYNVLLETLSRTEEIHENVISPSDLSDIKGSVLHSRHTELKEKLRSINQGLDRLRRVSHQGYSTEAEFEEPRVIDLWDLAQSANLTDKELEAFREELKHFEAKIEKHNHYQKQLEIAHEKLRHAESVGDGERVSRSREKHALLEGRTKELGYTVKKHLQDLSGRISRARHNEL
inhibition of binding of 200 nM proNGF to immobilized Sortilin ([3]; inhibitor 10 μM): ~65%

B3: GST-pro-domain of proBDNF: Pro-domain of human BDNF fused to GST, produced in E. coli (protein)
chain: APMKEANIRGQGGLAYPGVRTHGTLESVNGPKAGSGLTSLADTFEHVIEELLDEDQKVRPNEENNKDADLYTSRVMLSSQVPLEPPLLFLLEEYKNYLDAANMSMRVRR
modifications: left off: a dimerising Fc or GST
notes: Pro-domain of human BDNF fused to GST, produced in E. coli
Kd [2, 5]: ~58 nM

B4: NGF: Mature murine NGF from Austral Biologicals (protein)
chain: SSTHPVFHMGEFSVCDSVSVWVGDKTTATDIKGKEVTVLAEVNINNSVFRQYFFETKCRASNPVESGCRGIDSKHWNSYCTTTHTFVKALTTDEKQAAWRFIRIDTACVCVLSRKATRRG
Kd [1]: ~1 nM | Kd (TrkA/Fc): ~2 nM | Kd [2, 4]: ~87 nM

B5: proBDNF: Rat proBDNF produced in 293 cells and purified from the conditioned medium (protein)
chain: APMKEANVHGQGNLAYPAVRTHGTLESVNGPRAGSRGLTTTSLADTFEHVIEELLDEDQKVRPNEENHKDADLYTSRVMLSSQVPLEPPLLFLLEEYKNYLDAANMSMRVRRHSDPARRGELSVCDSISEWVTAADKKTAVDMSGGTVTVLEKVPVSKGQLKQYFYETKCNPMGYTKEGCRGIDKRHWNSQCRTTQSYVRALTMDSKKRIGWRFIRIDTSCVCTLTIKRGR
Kd [2, 5]: ~3 nM
